In patent US20240166738A1 (priority 2021, published 2024):

Target: GST-TMEM106B (truncated, comprising amino acids 122-210 of SEQ ID NO:1) (Homo sapiens, UniProt Q9NUM4)
Assay: Pre-mix epitope binning of anti-TMEM106B antibodies (Carterra / Lake Pharma)
Type: binding
Set-up: key to epitope bin: Bin 1: competes for binding to the same or overlapping TMEM106B region as the TM1, TM17, TM22, TM26, TM79, and/or TM82 antibodies; Bin 2: competes for binding to the same or overlapping TMEM106B region as the TM3, TM9, TM10, TM11, TM12, TM13, TM18, TM19, TM21, TM24, TM25, TM32, TM35, TM37, TM42, TM45, TM48, TM54, TM59, TM60, TM61, and/or TM76 antibodies; Bin 3: competes for binding to the same or overlapping TMEM106B region as the TM7, TM15, TM83, and/or TM84 antibodies; Bin 4: competes for binding to the same or overlapping TMEM106B region as the TMS, TM28, TM29, TM30, TM63, TM64, TM72, TM78, TM80, TM86, and/or TM88 antibodies; Bin 5: does not bind to a truncated TMEM106B comprising amino acids 122-210 of SEQ ID NO:1
Details: for epitope bin: competition for binding to truncated GST-TMEM106B (amino acids 122-210); for Binding Community/Bin: epitope bin number, pre-mix binning on truncated GST-TMEM106B
Description: (§1) Monoclonal anti-TMEM106B antibodies were immobilized to a CMD 50M chip (Xantec # SPMXCMD5OM lot# SCCMD50M0416). The running buffer was HBS-EP+ with 1 mg/mL BSA. The GST-TMEM106B (truncated, comprising amino acids 122-210 of SEQ ID NO:1) antigen was prepared at a final concentration of 55 nM (corresponding to 2 μg/mL) and mixed with the competing analyte anti-TMEM106B antibodies at a final concentration of 333 nM (corresponding to 50 μg/mL) or compared to a buffer control. Samples were injected for 5 minutes over the array and regenerated after every cycle with 1 minute of two parts Pierce IgG-Elution buffer (ThermoFisher Cat#21004) and 1 part of 10 mM Glycine, pH 2.0 (Carterra).
Anti-TMEM106B antibodies sorted into various competing bins and resulting binning profiles. […] Antibodies within Bin 3 or Bin 4 partially block Bin 2 antibodies.
as §1, with “SPMXCMD50M” for “SPMXCMD5OM”, “lmg/ml” for “1 mg/mL”, “(truncated)” for “(truncated, comprising amino acids 122-210 of SEQ ID NO:1)”, “μg/ml)” for “μg/mL)”

GST-TMEM106B (truncated, comprising amino acids 122-210 of SEQ ID NO:1), sequence (Q9NUM4 122-210): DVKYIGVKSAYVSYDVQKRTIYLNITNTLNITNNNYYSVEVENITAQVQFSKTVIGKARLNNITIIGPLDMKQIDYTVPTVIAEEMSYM

Molecule	epitope bin	Binding Community/Bin
TM-26: anti-TMEM106B monoclonal antibody; CDR-H1-3 SEQ ID NO: 2, 56, 99; CDR-L1-3 SEQ ID NO: 139, 176, 203 (antibody, V domains shown) VH: QVQLQQSGAELIRPGTSVKVSCKASGYAFTNYLIEWVKKRPGQGLEWIGVINPGSGITNYNEKFKGKATLTADKSSSTAYMQLSSLTSEDSAVYFCARSDFITTVVADYWGQGTTVTVSS VL: DIVVTQTPLSLPVSFGDQVSISCRSSQSLTNYYGNTYLSWYLHKPGQSPQLLIYGISNRFSGVPDRFSGSGSGTDFTLKISTIKPEDLGMYYCLQGTHQPRTFGGGTKLEIK	Bin 1	1
TM-82: anti-TMEM106B monoclonal antibody; VH SEQ ID NO: 487, VL SEQ ID NO: 522 (antibody, V domains shown, Variable Heavy Chain -- TM-82; Variable Light Chain -- TM-82) VH: QVQLQQSGAELVRPGTSVRVSCKASGYAFTNYLIEWIKQRPGQGLEWIGVINPGSGITDYSEKFKGKARLTADKSSSTAYMQLSSLTSDDSAVYFCTRSPFITTVVADYWGQGTTVTVSS VL: DVVVTQTPLSLPVSFGDQVSISCRSSQSLANTYGNTYLSWYLHTPGQSPQLLIFGISNRFSGVPDRFSGSGSGTDFTLKISTIKPEDLGVYYCLQGTHPPRTFGGGTKLEMK	Bin 1	1
TM-79: anti-TMEM106B monoclonal antibody; VH SEQ ID NO: 484, VL SEQ ID NO: 519 (antibody, V domains shown, Variable Heavy Chain -- TM-79; Variable Light Chain -- TM-79) VH: EVQLQQSGPELVKPGASVKMSCKASGYTFTNYVMHWLKQKPGQGLEWIAHITPHNDGTKYNEKFKGKATLTSDRSSSTAYMELNSLTSEDSAIYYCARSGQFGRGDYFHYWGQGTTVTVSS VL: DIVLTQSPASLAVSLGQRATISCRASKSVSTSGSIYIHWYQQKPGQPPKLLIYLTSNLESGVPARFSGSGSGTDFTLNIHPVEEEDAATYYCQHSGELPWTFGGGARLEIK	Bin 1	1
TM-1: anti-TMEM106B monoclonal antibody; CDR-H1-3 SEQ ID NO: 2, 35, 78; CDR-L1-3 SEQ ID NO: 120, 160, 184 (antibody, V domains shown) VH: QVQLQQSGAELVRPGTSVKVSCKASGYAFTNYLIEWVKQRPGQGLEWIGVINPGSGGTKYNEKLKGKATLTADKSSSTAYMQLSSLTSVDSAVYFCARRGYTIYDFYAMDYWGQGTSVTVSS VL: DVLMTQTPLSLPVSLGDHASISCRSSQSIVYNNGNTYLEWYLQKPGQSPKLLIYKVSNRFSGVPDRFSGSGSGTDFTLKISRVEAEDLGVYYCFQVSHVPFTFGSGTKLEIK	Bin 1	1
TM-35: anti-TMEM106B monoclonal antibody; CDR-H1-3 SEQ ID NO: 24, 66, 109; CDR-L1-3 SEQ ID NO: 148, 160, 194 (antibody, V domains shown) VH: QVQLQQSGPELVRPGTSVKISCKAPGYTFTRHWMQWVRQRPGQGLEWIGEILPGSNNIYYNEKVKGKATLTVDTSSSTSYMQLSSLTSEDSAVYFCARSLYDYDGVFAYWGQGTLVTVSA VL: DVLMTQIPLSLPVSLGDQASISCRSSQSIVHRNGNTYLEWYLQKPGQSPKLLIYKVSNRFSGVPDRFSGSGSGTDFTLKISRVEAEDLGVYYCFQGSHVPYTFGGGTKLEIK	Bin 2	2
TM-32: anti-TMEM106B monoclonal antibody; CDR-H1-3 SEQ ID NO: 13, 63, 106; CDR-L1-3 SEQ ID NO: 145, 160, 200 (antibody, V domains shown) VH: EVQLQQSGAELVRPGASVRLSCIASGFNIKDYYMYWVKQRPEQGLEWIGRIDPEDGDTEYVPKFQGKATMTADTSSNTAYLQLSSLTSEDIGVYYCTTRTWDLYYAVDNWGQGTSVTVSS VL: DVLMTQTPLSLPVSLGDQASISCRSSQNIVHSNGNTYLEWYLQKPGQSPKLLIDKVSNRFSGVPDRFSGSGSGTDFTLKISRVEAEDLGIYYCFQGSHVPFTFGSGTKLEIK	Bin 2	2
TM-48: anti-TMEM106B monoclonal antibody; CDR-H1-3 SEQ ID NO: 32, 74, 116; CDR-L1-3 SEQ ID NO: 155, 160, 218 (antibody, V domains shown) VH: QVQLQQSGPELVKPGASVKLSCKASGYTFTSYDINWVKQRPGQGLEWIGWIYPRDGNTQYIEKLKGKATLTVDTSSSTAYMELHSLTSEDSAVYFCARWIFYAMDYWGQGTSVTVSS VL: DVLMTQTPLSLPVSLGNQASISCRSSQSIVHGNGNTYLEWYLQKPGQSPKLLIYKVSNRFSGVPDRFSGSGSGTDFTLKISRVEAEDLGVYYCFQGSHLPYTFGGGTKLEIK	Bin 2	2
TM-54: anti-TMEM106B monoclonal antibody; VH SEQ ID NO: 464, VL SEQ ID NO: 500 (antibody, V domains shown, Variable Heavy Chain -- TM-54; Variable Light Chain -- TM-54) VH: QVQMQQSGPVLVKPGASVTLSCKASGYTFTTYDLNWVKQRPGQGLEWIGWIYPRGGSTEYNEKFKGKATLTVDTSSSTAYMELHSLTSEDSAVYFCAKYSIYAMDYWGQGTSVTVSS VL: DVLMTQTPLSLPVSLGDQASISCRSSQSIVHGNGNTYLEWYLQKPGQSPKLLIYKVSNRFSGVPDRFSGSGSGTDFTLKISRVEAEDLGVYYCFQGSHVPWTFGGGTKLEMK	Bin 2	2
TM-25: anti-TMEM106B monoclonal antibody; CDR-H1-3 SEQ ID NO: 10, 57, 100; CDR-L1-3 SEQ ID NO: 137, 168, 205 (antibody, V domains shown) VH: EVQLVESGGDLVKPGGSLRLSCAASGFTFSGYGMSWIRQTPDKRLEWVATISSGGRYTVYPDSVKGRFTMSRDNVKNTLYLQMSSLKSEDTALYYCARDNFYSYAMDYWGLGTSVTVSA VL: DIVMTQAAFSNPVTLGTSASISCRSSKSLLHSNGITYLFWYLQKPGQSPQLLIYQMSNLASGVPDRFSSSGSGTDFTLRISRVEAEDVGVYYCAQNLELWTFGGGTKLEIK	Bin 2	2
TM-17: anti-TMEM106B monoclonal antibody; CDR-H1-3 SEQ ID NO: 17, 51, 94; CDR-L1-3 SEQ ID NO: 132, 172, 196 (antibody, V domains shown) VH: QVQLQQSGAELIRPGTSVKVSCKASGYAFTDYLIEWVKQRPGQGLEWIGVINPGSGGTNYNEKFKGKAKLTADKSSSTAYMQLSSLTSEDSAVYFCVRSSYGVYVAYPMDYWGQGTSVTVSS VL: DIQMTQSPSSLSASLGERVSLTCRASQDIGSNLNWLQQEPDGTIKRLIYATSSLDSGVPKRFSGSRSGSDYSLTISSLESEDFVDYYCLQYASSPRTFGGGTKLEIK	Bin 1	1
TM-24: anti-TMEM106B monoclonal antibody; CDR-H1-3 SEQ ID NO: 12, 45, 88; CDR-L1-3 SEQ ID NO: 140, 170, 204 (antibody, V domains shown) VH: QVQLKQSGPGQVQPSQSLSITCTVSGFSLSDYGVHWVRQSPGKGLEWLGVIWNNGNTDYNAAFISRLSINKDNSKSQVFFKMTSLQADDTAIYYCVRSLRPLHFDYWGQGTTVTVSS VL: DIVMTQSPSSLTMSVGQKVTMNCKSSQSLLNSNNQQNYLAWYQQKPGQSPKLLVYFASIRESGVPDRFIGSGSGTDFTLTINSVQAEDLADYFCQQHYSTPFTFGSGTKLEIR	Bin 2	2
